Test results: US20240116985A1 (published 2024)
Starred links: 1 amine or outer side, 2 acyl side, 3 side chain; linkers in the order of their positions; H or OH if unused. Positions of bridges follow the written chain, without caps; N, C: chain ends. Non-standard residues stand in square brackets, D forms with d. Primed or numbered codes have the meaning given here. *: point of attachment. PyrS2″ = (S)-3-amino-1-((pent-4-en-1-yloxy)carbonyl)pyrrolidine-3-carboxylic acid (stapling residue), C=CCCCOC(=O)N1CC[C@@](N[*:1])(C(=O)[*:2])C1; (bismethoxyethylamine)GlnR = [bismethoxyethylamine]GlnR, N5,N5-bis(2-methoxyethyl)-L-glutamine, COCCN(CCOC)C(=O)CC[C@H](N[*:1])C(=O)[*:2]; B5(16) = 2-amino-2-(pent-4-en-1-yl)hept-6-enoic acid = 2,2-bis(4-pentenyl)glycine (stitching residue), C=CCCCC(CCCC=C)(N[*:1])C(=O)[*:2]; B5(4) = 2,2-bis(4-pentenyl)glycine = 2-amino-2-(pent-4-en-1-yl)hept-6-enoic acid (stitching residue), C=CCCCC(CCCC=C)(N[*:1])C(=O)[*:2]; (AcPpz)GlnR = [AcPpz]GlnR, (S)-5-(4-acetylpiperazin-1-yl)-2-amino-5-oxopentanoic acid, CC(=O)N1CCN(C(=O)CC[C@H](N[*:1])C(=O)[*:2])CC1; (4Pippip)GlnR″ = (S)-5-([1,4'-bipiperidin]-1'-yl)-2-amino-5-oxopentanoic acid, O=C(CC[C@H](N[*:1])C(=O)[*:2])N1CCC(N2CCCCC2)CC1; PyrS2 = (S)-3-amino-1-((pent-4-en-1-yloxy)carbonyl)pyrrolidine-3-carboxylic acid, C=CCCCOC(=O)N1CC[C@@](N[*:1])(C(=O)[*:2])C1; PyrS1 = (S)-3-amino-1-((but-3-en-1-yloxy)carbonyl)pyrrolidine-3-carboxylic acid, C=CCCOC(=O)N1CC[C@@](N[*:1])(C(=O)[*:2])C1; (AcPpz)GlnR″ = (S)-5-(4-acetylpiperazin-1-yl)-2-amino-5-oxopentanoic acid, CC(=O)N1CCN(C(=O)CC[C@H](N[*:1])C(=O)[*:2])CC1; PyrS = (S)-1-((allyloxy)carbonyl)-3-aminopyrrolidine-3-carboxylic acid, C=CCOC(=O)N1CC[C@@](N[*:1])(C(=O)[*:2])C1; (Morph)GlnR″ = [Morph]GlnR, (S)-2-amino-5-morpholino-5-oxopentanoic acid, O=C(CC[C@H](N[*:1])C(=O)[*:2])N1CCOCC1; MorphAsn = (S)-2-amino-4-morpholino-4-oxobutanoic acid, O=C(C[C@H](N[*:1])C(=O)[*:2])N1CCOCC1; B6 = 2-amino-2-(hex-5-en-1-yl)oct-7-enoic acid, C=CCCCCC(CCCCC=C)(N[*:1])C(=O)[*:2]; 5hexenyl = N-terminal hex-5-enoic acid (acyl cap), C=CCCCC(=O)*; Phe(3-COOH) = N[C@@H](Cc1cccc(C(=O)O)c1)C(=O)O; Phe(2-CF3) = N[C@@H](Cc1ccccc1C(F)(F)F)C(=O)O; Phe(2-Cl) = N[C@@H](Cc1ccccc1Cl)C(=O)O; dαMeGly(allyl) = C=CC[C@@](C)(N)C(=O)O; Bta = N[C@@H](Cc1csc2ccccc12)C(=O)O; αAllylPro = C=CC[C@@]1(C(=O)O)CCCN1; Morpholinoacetyl = O=C(CN1CCOCC1)*; tBuAla = CC(C)(C)C[C@H](N)C(=O)O; 3Thi = N[C@@H](Cc1ccsc1)C(=O)O; Cha = N[C@@H](CC1CCCCC1)C(=O)O; AllylGly = C=CC[C@H](N)C(=O)O; R5 = C=CCCC[C@@](C)(N)C(=O)O; Nle = CCCC[C@H](N)C(=O)O; Abu = CC[C@H](N)C(=O)O; Aib = CC(C)(N)C(=O)O

T1: B-cat-Halo (beta-catenin HaloTag construct expressed in HEK293 cells) (UniProt P35222 1-781)
T1 sequence (looked up): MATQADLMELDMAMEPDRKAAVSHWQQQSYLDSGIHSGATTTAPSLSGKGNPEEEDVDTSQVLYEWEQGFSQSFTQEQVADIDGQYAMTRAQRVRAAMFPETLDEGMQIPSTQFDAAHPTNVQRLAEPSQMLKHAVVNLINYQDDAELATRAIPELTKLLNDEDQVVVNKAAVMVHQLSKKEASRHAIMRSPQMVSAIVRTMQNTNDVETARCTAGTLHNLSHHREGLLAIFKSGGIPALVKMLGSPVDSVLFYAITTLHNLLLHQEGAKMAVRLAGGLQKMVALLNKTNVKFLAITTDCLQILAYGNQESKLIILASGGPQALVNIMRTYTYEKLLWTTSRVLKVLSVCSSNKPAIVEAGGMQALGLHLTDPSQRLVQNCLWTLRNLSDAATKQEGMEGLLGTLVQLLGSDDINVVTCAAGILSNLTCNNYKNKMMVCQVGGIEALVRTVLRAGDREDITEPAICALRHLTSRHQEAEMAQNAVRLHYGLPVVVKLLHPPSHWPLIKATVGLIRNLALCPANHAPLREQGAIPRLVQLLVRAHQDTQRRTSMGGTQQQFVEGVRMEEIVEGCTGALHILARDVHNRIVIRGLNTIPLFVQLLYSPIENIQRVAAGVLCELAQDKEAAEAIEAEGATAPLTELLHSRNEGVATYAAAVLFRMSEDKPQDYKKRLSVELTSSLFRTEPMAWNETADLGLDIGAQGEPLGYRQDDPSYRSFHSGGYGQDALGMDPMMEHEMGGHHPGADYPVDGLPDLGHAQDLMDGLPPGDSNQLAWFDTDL

T2: B-cat-Halo (beta-catenin HaloTag fusion expressed in HEK293 cells) (UniProt P35222 1-781)
T2 sequence (looked up): T1 sequence (looked up)

T3: B-cat-Halo (UniProt P35222 1-781)
T3 sequence (looked up): T1 sequence (looked up)

B1: I-2529 (peptide)
peptide: 5hexenyl-[αAllylPro]D[AllylGly][B5(4)]D[Phe(3-COOH)]AAFL[PyrS2″][Phe(2-CF3)][Bta]Q-NH2
modifications: staple (positions not given here); not fully specified (bridges); printed as 5hexenyl-PL3-Asp-AllylGly-B5-Asp-3COOHF-Ala-Ala-Phe-Leu-PyrS2-2F3MeF-BztA-Gln-NH2; also: staple C=C reduced to CH2-CH2, staple partners not given here
B2: I-2523 (peptide)
peptide: Ac-[αAllylPro]N[Cha][B5(4)]DQKAFL[PyrS2]F[Bta][MorphAsn]-NH2
modifications: staple 1-4, 4-11; not fully specified (residue 7); printed as Ac-PL3-Asn-Cha-B5-Asp-Gln-[Phc]Lys-Ala-Phe-Leu-PyrS2-Phe-BztA-MorphAsn-NH2
B3: I-2565 (peptide)
peptide: Ac-[R5]D[tBuAla][B5(4)]D[Phe(3-COOH)]AAFL[PyrS2″][Phe(2-CF3)][Bta]Q-NH2
modifications: staple 1-4, 4-11; not fully specified; printed as Ac-R5-Asp-Npg-B5-Asp-3COOHF-Ala-Ala-Phe-Leu-PyrS2-2F3MeF-BztA-Gln-NH2

Each binder was assayed against T1, B-cat-Halo (beta-catenin HaloTag …) (assay: cell-based or functional assay).

| Binder | NanoBRET Abs IC50 (uM); Bcat-Halo / TCF4-Luc in HEK293 cells |
| --- | --- |
| B1 | 33.2 µM |
| Ac-[αAllylPro]N[Cha][B5(4)]DQK(Morpholinoacetyl)AFL[PyrS2]F[Bta][MorphAsn]-NH2 (staple 1-4, 4-11) [I-2527] | > 20 µM |
| Ac-[αAllylPro]N[Cha][B5(4)]DQK(Ac)AFL[PyrS2]F[Bta][MorphAsn]-NH2 (staple 1-4, 4-11) [I-2522] | > 20 µM |
| Ac-[αAllylPro]D[tBuAla][B6]D[Phe(3-COOH)]QAFL[PyrS1][Phe(2-CF3)][Bta]A-NH2 (staple 1-4, 4-11) [I-2510] | 7.8 µM |
| B2 | > 20 µM |
| Ac-[αAllylPro]D[tBuAla][B6]D[Phe(3-COOH)]AAFL[PyrS2][Phe(2-CF3)][Bta]Q-NH2 (staple 1-4, 4-11) [I-2513] | > 20 µM |
| Ac-[αAllylPro]D[tBuAla][B6]D[Phe(3-COOH)]AAFL[PyrS][Phe(2-CF3)][Bta]Q-NH2 (staple 1-4, 4-11) [I-2518] | > 20 µM |
| Ac-[αAllylPro]D[tBuAla][B6]D[Phe(3-COOH)]QAFL[PyrS2][Phe(2-CF3)][Bta]A-NH2 (staple 1-4, 4-11) [I-2517] | 30 µM |
| Ac-[αAllylPro]N[Cha][B5(4)]DQK(mPEG4)AFL[PyrS2]F[Bta][MorphAsn]-NH2 (staple 1-4, 4-11) [I-2526] | > 20 µM |
| Ac-[αAllylPro]D[tBuAla][B6]D[Phe(3-COOH)]QAFL[PyrS2][Phe(2-CF3)][Bta]A-NH2 (staple 1-4, 4-11) [I-2515] | > 20 µM |
| Ac-[αAllylPro]D[tBuAla][B5(4)]D[Phe(3-COOH)]AAFL[PyrS2″][Phe(2-CF3)][Bta][Me2Gln]-NH2 (staple 1-4, 4-11) [I-2532] | 4.5 µM |

Each binder was assayed against T2, B-cat-Halo (beta-catenin HaloTag fusion …) (assay: cell-based or functional assay).

| Binder | NanoBRET Abs IC50 |
| --- | --- |
| B3 | 21 µM |
| Ac-[dαMeGly(allyl)]D[tBuAla][B5(4)]D[Phe(3-COOH)]AAFL[PyrS2″][Phe(2-CF3)][Bta]Q-NH2 (staple 1-4, 4-11) [I-2563] | 17 µM |
| Ac-[αAllylPro]D[tBuAla][B5(4)]D[Phe(3-COOH)][Aib]AF[Nle][PyrS2″][3Thi][Bta][(4Pippip)GlnR]-NH2 (staple 1-4, 4-11) [I-2555] | 22.1 µM |
| Ac-[αAllylPro]D[tBuAla][B5(4)]D[Phe(3-COOH)][Aib]AF[Nle][PyrS2″][3Thi][Bta][(Morph)GlnR″]-NH2 (staple 1-4, 4-11) [I-2553] | 8.2 µM |
| Ac-[αAllylPro]D[tBuAla][B5(4)]D[Phe(3-COOH)][Aib]AF[Nle][PyrS2″][3Thi][Bta][(bismethoxyethylamine)GlnR]-NH2 (staple 1-4, 4-11) [I-2554] | 3.3 µM |
| Ac-[αAllylPro]D[tBuAla][B5(4)]D[Phe(3-COOH)][Aib]AF[Nle][PyrS2″][3Thi][Bta][(4F3CPip)GlnR]-NH2 (staple 1-4, 4-11) [I-2557] | 19.6 µM |
| Ac-[αAllylPro]D[tBuAla][B5(4)]D[Phe(3-COOH)][Aib]AF[Abu][PyrS2″][3Thi][Bta][(4Pippip)GlnR″]-NH2 (staple 1-4, 4-11) [I-2560] | 19.3 µM |
| Ac-[R5]D[tBuAla][B5(4)]D[Phe(3-COOH)]AAFL[PyrS2″][Phe(2-CF3)][Bta]Q-NH2 (staple 1-4, 4-11; also: -CH=CH- in each staple reduced to -CH2-CH2-) [I-2571] | 24 µM |
| Ac-[αAllylPro]D[tBuAla][B5(4)]D[Phe(3-COOH)][Aib]AF[Abu][PyrS2″][3Thi][Bta][(bismethoxyethylamine)GlnR]-NH2 (staple 1-4, 4-11) [I-2559] | 3.8 µM |
| Ac-[αAllylPro]D[tBuAla][B5(4)]D[Phe(3-COOH)][Aib]AF[Abu][PyrS2″][3Thi][Bta][(Morph)GlnR″]-NH2 (staple 1-4, 4-11) [I-2558] | 14.7 µM |
| Ac-[αAllylPro]D[tBuAla][B5(4)]D[Phe(3-COOH)][Aib]AF[Nle][PyrS2″][3Thi][Bta][(AcPpz)GlnR]-NH2 (staple 1-4, 4-11) [I-2556] | 7 µM |
| Ac-P[dαMeGly(allyl)]D[tBuAla][B5(4)]D[Phe(3-COOH)]AAFL[PyrS2″][Phe(2-CF3)][Bta]Q-NH2 (staple 5-12, 2-5; also: -CH=CH- in each staple reduced to -CH2-CH2-) [I-2572] | > 20 µM |
| Ac-[αAllylPro]D[tBuAla][B5(4)]D[Phe(3-COOH)][Aib]AF[Abu][PyrS2″][3Thi][Bta][(AcPpz)GlnR″]-NH2 (staple 1-4, 4-11) [I-2561] | 7.2 µM |

Each binder was assayed against T3, B-cat-Halo (assay: cell-based or functional assay).

| Binder | NanoBRET Abs IC50 |
| --- | --- |
| Ac-[αAllylPro]D[Cha][B5(16)]DDAAFN[PyrS2″][Phe(2-Cl)][Bta]S-NH2 (staple 1-4, 4-11) [I-1046] | 20.5 µM |
| Ac-[αAllylPro]D[Cha][B5(16)]DDAAFS[PyrS2″][Phe(2-Cl)][Bta]Q-NH2 (staple 1-4, 4-11) [I-1044] | 17.6 µM |
| Ac-[αAllylPro]D[Cha][B5(16)]DDAAFN[PyrS2″][Phe(2-Cl)][Bta]Q-NH2 (staple 1-4, 4-11) [I-1040] | 9.3 µM |
| Ac-[αAllylPro]D[Cha][B5(16)]DDAAFT[PyrS2″][Phe(2-Cl)][Bta]Q-NH2 (staple 1-4, 4-11) [I-1042] | 11.4 µM |
